# Measurements: patent US20170275350A1 (Scripps Research, published 2017)
# Tests used:
# [1] = system: Synthetic PAR1 N-terminal peptide TR33-62
# [2] = target: Protease activated receptor-1 (PAR1), endogenous on EA.hy.926 endothelial cells (human) (UniProt P25116); experiment: cell-based or functional assay
# [3] = target: T1, Protease activated receptor-1 (PAR1), endogenous on EA.hy.926 endothelial cells (human, UniProt P25116 42-425); experiment: cell-based or functional assay
# T1 sequence: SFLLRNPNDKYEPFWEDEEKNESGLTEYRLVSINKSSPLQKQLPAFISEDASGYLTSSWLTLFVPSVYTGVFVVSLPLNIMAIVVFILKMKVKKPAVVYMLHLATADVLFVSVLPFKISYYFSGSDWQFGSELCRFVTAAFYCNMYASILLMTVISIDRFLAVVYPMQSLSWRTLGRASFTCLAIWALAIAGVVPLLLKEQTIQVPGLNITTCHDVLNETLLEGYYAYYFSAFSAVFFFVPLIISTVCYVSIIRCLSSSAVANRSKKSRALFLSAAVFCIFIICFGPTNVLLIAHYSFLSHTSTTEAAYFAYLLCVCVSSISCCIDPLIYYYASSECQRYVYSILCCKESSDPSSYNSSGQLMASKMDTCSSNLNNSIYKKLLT
# Sequence of Synthetic PAR1 N-terminal peptide TR33-62 (chain, as listed by the source): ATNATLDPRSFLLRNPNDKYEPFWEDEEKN
Molecule,"cleavage of the peptide (reverse phase HPLC, MALDI-TOF of fragments) [1]","ERK1/2 phosphorylation in EA.hy.926 cells (immunoblot, ratio to total ERK1/2) [3] [fold]",also measured
Thrombin,"the two fragments produced by thrombin (peaks A and D) corresponded to masses of 1,001 and 2,670 for cleavage at Arg^41",,
Activated Protein C (from UniProt P04070 43-461) (enzyme),,,"ERK1/2 phosphorylation in EA.hy.926 cells (immunoblot, ratio to total ERK1/2) [2]: 1.5 fold; decrease of ATAP2 signal relative to WEDE15, on cell Western [2]: 50%"
Activated Protein C,APC cleaves this PAR1 peptide at Arg^46 as well as at Arg^41,,
TFLLRNPNDK [TFLL peptide (TR42-51 with S42T)],,3,
NPNDKYEPFWEDEEKNESGL [PAR1 peptide TR47-66],,1.5,
